Source: FireProtDB (doi:10.1016/0022-2836(92)90906-z)

Details: Bacillus amyloliquefaciens; pH 6.3; 25 °C; Urea; Fluorescence; MES 1.00 M; NaCl 613 mM; reversible: yes; whole UniProt chain shown

B1: Ribonuclease wild type, P00648 (protein)
chain: MMKMEGIALKKRLSWISVCLLVLVSAAGMLFSTAAKTETSSHKAHTEAQVINTFDGVADYLQTYHKLPDNYITKSEAQALGWVASKGNLADVAPGKSIGGDIFSNREGKLPGKSGRTWREADINYTSGFRNSDRILYSSDWLIYKTTDHYQTFTKIR
denaturant m value: 1.93 kcal/mol/M | denaturant midpoint (higher = more stable): 4.57 M | unfolding free energy: 8.8 kcal/mol
